The values that follow come from the Human Domainome abundance scans (Beltran et al. 2025).

B1: SAM and SH3 domain-containing protein 1, residues 630 to 700; numbered along this chain, O94885 (parent)
chain: GRPPQPKSVEDLLDRINLKEHMPTFLFNGYEDLDTFKLLEEEDLDELNIRDPEHRAVLLTAVELLQEYDSN

± gives the uncertainty stated by the source.

The variants in this data set derive from B1. The experiment in a line: abundance fitness (aPCA) (normalised: wild type 0, dead -1); higher = more abundant; growth selection in yeast, the domain comes from the species named. The note with it: Homo sapiens.
For the variant GRPPQPKSVEDLLDRINLKEHMPYFLFNGYEDLDTFKLLEEEDLDELNIRDPEHRAVLLTAVELLQEYDSN, the abundance fitness is -0.98 ± 0.097.

In the case of GRPPQPKSVEDLLDRINLKEHMPWFLFNGYEDLDTFKLLEEEDLDELNIRDPEHRAVLLTAVELLQEYDSN, the abundance fitness is -0.892 ± 0.095.

Regarding GRPPQPKSVEDLLDRINLKEHMPSFLFNGYEDLDTFKLLEEEDLDELNIRDPEHRAVLLTAVELLQEYDSN, the abundance fitness is -0.464 ± 0.044.

Take GRPPQPKSVEDLLDRINLKEHMPRFLFNGYEDLDTFKLLEEEDLDELNIRDPEHRAVLLTAVELLQEYDSN: the abundance fitness is -0.367 ± 0.04.

In the case of GRPPQPKSVEDLLDRINLKEHMPPFLFNGYEDLDTFKLLEEEDLDELNIRDPEHRAVLLTAVELLQEYDSN, the abundance fitness was -0.88 ± 0.069.

Regarding GRPPQPKSVEDLLDRINLKEHMPQFLFNGYEDLDTFKLLEEEDLDELNIRDPEHRAVLLTAVELLQEYDSN, the abundance fitness is -0.544 ± 0.064.

GRPPQPKSVEDLLDRINLKEHMPVFLFNGYEDLDTFKLLEEEDLDELNIRDPEHRAVLLTAVELLQEYDSN: the abundance fitness is -0.179 ± 0.041.

Take GRPPQPKSVEDLLDRINLKEHMPTFWFNGYEDLDTFKLLEEEDLDELNIRDPEHRAVLLTAVELLQEYDSN: the abundance fitness is -0.533 ± 0.064.

As to GRPPQPKSVEDLLDRINLKEHMPTFAFNGYEDLDTFKLLEEEDLDELNIRDPEHRAVLLTAVELLQEYDSN, the abundance fitness was -0.117 ± 0.04.

For the variant GRPPQPKSVEDLLDRINLKEHMPTFEFNGYEDLDTFKLLEEEDLDELNIRDPEHRAVLLTAVELLQEYDSN, the abundance fitness is -0.188 ± 0.05.

Turning to GRPPQPKSVEDLLDRINLKEHMPTFGFNGYEDLDTFKLLEEEDLDELNIRDPEHRAVLLTAVELLQEYDSN, the abundance fitness was -0.697 ± 0.06.

Regarding GRPPQPKSVEDLLDRINLKEHMPTFYFNGYEDLDTFKLLEEEDLDELNIRDPEHRAVLLTAVELLQEYDSN, the abundance fitness is -0.181 ± 0.055.

Consider GRPPQPKSVEDLLDRINLKEHMPTFDFNGYEDLDTFKLLEEEDLDELNIRDPEHRAVLLTAVELLQEYDSN, for which the abundance fitness was -0.667 ± 0.089.

As for GRPPQPKSVEDLLDRINLKEHMPTFSFNGYEDLDTFKLLEEEDLDELNIRDPEHRAVLLTAVELLQEYDSN, the abundance fitness is -0.337 ± 0.045.

With GRPPQPKSVEDLLDRINLKEHMPTFQFNGYEDLDTFKLLEEEDLDELNIRDPEHRAVLLTAVELLQEYDSN, the abundance fitness is -0.11 ± 0.049.

Regarding GRPPQPKSVEDLLDRINLKEHMPTFRFNGYEDLDTFKLLEEEDLDELNIRDPEHRAVLLTAVELLQEYDSN, the abundance fitness is -0.111 ± 0.039.

GRPPQPKSVEDLLDRINLKEHMPTFCFNGYEDLDTFKLLEEEDLDELNIRDPEHRAVLLTAVELLQEYDSN: the abundance fitness was -0.464 ± 0.073.

With GRPPQPKSVEDLLDRINLKEHMPTFKFNGYEDLDTFKLLEEEDLDELNIRDPEHRAVLLTAVELLQEYDSN, the abundance fitness stood at 0.034 ± 0.044.

On to GRPPQPKSVEDLLDRINLKEHMPTFVFNGYEDLDTFKLLEEEDLDELNIRDPEHRAVLLTAVELLQEYDSN, for which the abundance fitness was 0.034 ± 0.037.

Regarding GRPPQPKSVEDLLDRINLKEHMPTFFFNGYEDLDTFKLLEEEDLDELNIRDPEHRAVLLTAVELLQEYDSN, the abundance fitness is -0.167 ± 0.054.

Turning to GRPPQPKSVEDLLDRINLKEHMPTFMFNGYEDLDTFKLLEEEDLDELNIRDPEHRAVLLTAVELLQEYDSN, the abundance fitness is -0.043 ± 0.045.

Regarding GRPPQPKSVEDLLDRINLKEHMPTFPFNGYEDLDTFKLLEEEDLDELNIRDPEHRAVLLTAVELLQEYDSN, the abundance fitness was -0.825 ± 0.073.

For the variant GRPPQPKSVEDLLDRINLKEHMPTFTFNGYEDLDTFKLLEEEDLDELNIRDPEHRAVLLTAVELLQEYDSN, the abundance fitness was -0.225 ± 0.043.

As to GRPPQPKSVEDLLDRINLKEHMPTFHFNGYEDLDTFKLLEEEDLDELNIRDPEHRAVLLTAVELLQEYDSN, the abundance fitness was -0.44 ± 0.066.

In the case of GRPPQPKSVEDLLDRINLKEHMPTTLFNGYEDLDTFKLLEEEDLDELNIRDPEHRAVLLTAVELLQEYDSN, the abundance fitness was -0.59 ± 0.061.

In the case of GRPPQPKSVEDLLDRINLKEHMPTMLFNGYEDLDTFKLLEEEDLDELNIRDPEHRAVLLTAVELLQEYDSN, the abundance fitness is -0.676 ± 0.073.

As to GRPPQPKSVEDLLDRINLKEHMPTWLFNGYEDLDTFKLLEEEDLDELNIRDPEHRAVLLTAVELLQEYDSN, the abundance fitness is -0.891 ± 0.088.

On to GRPPQPKSVEDLLDRINLKEHMPTHLFNGYEDLDTFKLLEEEDLDELNIRDPEHRAVLLTAVELLQEYDSN, for which the abundance fitness was -0.924 ± 0.11.

As for GRPPQPKSVEDLLDRINLKEHMPTVLFNGYEDLDTFKLLEEEDLDELNIRDPEHRAVLLTAVELLQEYDSN, the abundance fitness is -0.758 ± 0.063.

In the case of GRPPQPKSVEDLLDRINLKEHMPTGLFNGYEDLDTFKLLEEEDLDELNIRDPEHRAVLLTAVELLQEYDSN, the abundance fitness was -0.882 ± 0.076.

As to GRPPQPKSVEDLLDRINLKEHMPTPLFNGYEDLDTFKLLEEEDLDELNIRDPEHRAVLLTAVELLQEYDSN, the abundance fitness is -0.925 ± 0.084.

Take GRPPQPKSVEDLLDRINLKEHMPTQLFNGYEDLDTFKLLEEEDLDELNIRDPEHRAVLLTAVELLQEYDSN: the abundance fitness was -0.778 ± 0.078.

Regarding GRPPQPKSVEDLLDRINLKEHMPTCLFNGYEDLDTFKLLEEEDLDELNIRDPEHRAVLLTAVELLQEYDSN, the abundance fitness is -0.701 ± 0.08.

As to GRPPQPKSVEDLLDRINLKEHMPTDLFNGYEDLDTFKLLEEEDLDELNIRDPEHRAVLLTAVELLQEYDSN, the abundance fitness is -0.672 ± 0.093.

On to GRPPQPKSVEDLLDRINLKEHMPTALFNGYEDLDTFKLLEEEDLDELNIRDPEHRAVLLTAVELLQEYDSN, for which the abundance fitness is -0.837 ± 0.072.

Consider GRPPQPKSVEDLLDRINLKEHMPTELFNGYEDLDTFKLLEEEDLDELNIRDPEHRAVLLTAVELLQEYDSN, for which the abundance fitness was -0.623 ± 0.094.

Take GRPPQPKSVEDLLDRINLKEHMPTILFNGYEDLDTFKLLEEEDLDELNIRDPEHRAVLLTAVELLQEYDSN: the abundance fitness is -0.687 ± 0.081.

For the variant GRPPQPKSVEDLLDRINLKEHMPTKLFNGYEDLDTFKLLEEEDLDELNIRDPEHRAVLLTAVELLQEYDSN, the abundance fitness was -0.784 ± 0.071.
